For assay [1], the target named is T1, FcγRIIb extracellular domain with C-terminal His tag (human, UniProt P31994 43-217).
T1 construct: extracellular domain; expressed in FreeStyle293 cells; analyte in Biacore; also called FcgRIIb; 2b
T1 sequence (looked up): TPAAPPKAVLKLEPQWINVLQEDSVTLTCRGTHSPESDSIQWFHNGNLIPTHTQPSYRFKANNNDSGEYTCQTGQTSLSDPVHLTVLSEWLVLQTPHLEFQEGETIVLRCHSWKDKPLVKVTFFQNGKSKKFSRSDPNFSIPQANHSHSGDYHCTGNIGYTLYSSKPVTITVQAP
In words: SPR (Biacore), captured antibody, FcγR as analyte; relative binding.

Assay [2] has as its target T2, FcγRIa extracellular domain with C-terminal His tag (human, UniProt P12314 16-292).
T2 construct: extracellular domain; expressed in FreeStyle293 cells; analyte in Biacore; also called FcgRI; 1a
The description is as above.

Another assay deals with T3, FcγRIa (human, UniProt P12314 16-292).
T3 construct: extracellular domain; also called FcgRI; 1a
T3 sequence (P12314 16-292): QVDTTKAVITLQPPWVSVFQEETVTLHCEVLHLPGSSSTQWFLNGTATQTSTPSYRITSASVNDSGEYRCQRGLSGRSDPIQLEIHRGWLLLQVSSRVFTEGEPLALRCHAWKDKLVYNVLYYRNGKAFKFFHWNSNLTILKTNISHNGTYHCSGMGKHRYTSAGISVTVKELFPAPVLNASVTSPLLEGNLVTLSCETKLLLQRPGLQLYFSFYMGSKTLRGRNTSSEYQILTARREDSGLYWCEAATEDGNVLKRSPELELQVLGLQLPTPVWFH
Put plainly: SPR (Biacore); He Ab relative to HeCon Ab = 100. The method, then: Analysis of interaction between objective antibody and the FcγR was carried out using Biacore T100 (GE Healthcare). HBS-EP+ (GE Healthcare) was used as the running buffer, and the measurement temperature was set to 25° C. Chips produced by immobilizing the antigen peptide by the amine coupling method to a Series S Sencor Chip CM5 (GE Healthcare), or alternatively, chips produced by allowing preliminarily biotinylated antigen peptides to interact with and immobilize onto a Series S Sensor Chip SA (certified) (GE Healthcare) were used. Antibodies of interest were captured onto an antigen peptide-immobilized chip, and allowed to interact to each FcγR diluted with running buffer. To regenerate and repeatedly use the chip, the antibodies captured on the chip were washed off by reacting 10 mM glycine-HCl, pH 1.5.

T2 sequence (P12314 16-292): as above

B1: GpH7-A5/GpH7-B3 variant K326_12R/GpL16-k0 (antibody, human IgG1, kappa)
heavy 1: not shown
heavy 2: not shown
light: DIVMTQSPLSLPVTPGEPASISCQASESLVHSNRNTYLHWYLQKPGQSPQLLIYKVSNRFSGVPDRFSGSGSGTDFTLKISRVEAEDVGVYYCSQNTHVPPTFGQGTKVEIERTVAAPSVFIFPPSDEQLKSGTASVVCLLNNFYPREAKVQWKVDNALQSGNSQESVTEQDSKDSTYSLSSTLTLSKADYEKHKVYACEVTHQGLSSPVTKSFNRGEC
notes: He Ab; IgG1, mutation in one H chain
On to B1, for which the He/Con_2b in assay [1] was 89.2 % of HeCon Ab (GpH7-A5/GpH7-B3/GpL16-k0 = 100). For the same molecule, in assay [2], the He/Con_1a was 100 % of HeCon Ab (GpH7-A5/GpH7-B3/GpL16-k0 = 100).

B2: GpH7-A5/GpH7-B3 variant S298_02A/GpL16-k0 (antibody, human IgG1, kappa)
heavy 1: not shown
heavy 2: not shown
light: B1 light
notes: as for B1
As for B2, the He/Con_2b in assay [1] is 73.4 % of HeCon Ab (GpH7-A5/GpH7-B3/GpL16-k0 = 100). In assay [2], the He/Con_1a was 107 % of HeCon Ab (GpH7-A5/GpH7-B3/GpL16-k0 = 100).

B3: GpH7-A5/GpH7-B3 variant Q295_11K/GpL16-k0 (antibody, human IgG1, kappa)
heavy 1: not shown
heavy 2: not shown
light: B1 light
notes: also called He Ab Q295_11K
Consider B3, for which the He/Con_1a with FcγRIa was 101 % of control.

B4: GpH7-A5/GpH7-B3 variant Q295_11K/GpL16-k0 (antibody, human IgG1, kappa)
heavy 1: not shown
heavy 2: not shown
light: B1 light
notes: as for B1
B4: the He/Con_2b in assay [1] is 70.4 % of HeCon Ab (GpH7-A5/GpH7-B3/GpL16-k0 = 100). Further, the He/Con_1a in assay [2] was 101 % of HeCon Ab (GpH7-A5/GpH7-B3/GpL16-k0 = 100).

B5: GpH7-A5/GpH7-B3 variant S298_01G/GpL16-k0 (antibody, human IgG1, kappa)
heavy 1: not shown
heavy 2: not shown
light: B1 light
notes: as for B1
Take B5: the He/Con_2b in assay [1] is 80.1 % of HeCon Ab (GpH7-A5/GpH7-B3/GpL16-k0 = 100). Also, the He/Con_1a in assay [2] is 104 % of HeCon Ab (GpH7-A5/GpH7-B3/GpL16-k0 = 100).

B6: GpH7-A5/GpH7-B3 variant Q295_18N/GpL16-k0 (antibody, human IgG1, kappa)
heavy 1: not shown
heavy 2: not shown
light: B1 light
notes: as for B1
On to B6, for which the He/Con_2b in assay [1] is 64.9 % of HeCon Ab (GpH7-A5/GpH7-B3/GpL16-k0 = 100). Also, the He/Con_1a in assay [2] was 102 % of HeCon Ab (GpH7-A5/GpH7-B3/GpL16-k0 = 100).

B7: GpH7-A5/GpH7-B3 variant Q295_13S/GpL16-k0 (antibody, human IgG1, kappa)
heavy 1: not shown
heavy 2: not shown
light: B1 light
notes: as for B1
B7: in assay [1], the He/Con_2b is 56.9 % of HeCon Ab (GpH7-A5/GpH7-B3/GpL16-k0 = 100). In addition, the He/Con_1a in assay [2] is 102 % of HeCon Ab (GpH7-A5/GpH7-B3/GpL16-k0 = 100).

B8: GpH7-A5/GpH7-B3 variant Q295_16H/GpL16-k0 (antibody, human IgG1, kappa)
heavy 1: not shown
heavy 2: not shown
light: B1 light
notes: also called He Ab Q295_16H
On to B8, for which the He/Con_1a with FcγRIa was 102 % of control.

B9: GpH7-A5/GpH7-B3 variant Q295_10E/GpL16-k0 (antibody, human IgG1, kappa)
heavy 1: not shown
heavy 2: not shown
light: B1 light
notes: as for B1
On to B9, for which, in assay [1], the He/Con_2b was 94.8 % of HeCon Ab (GpH7-A5/GpH7-B3/GpL16-k0 = 100). The He/Con_1a in assay [2] was 103 % of HeCon Ab (GpH7-A5/GpH7-B3/GpL16-k0 = 100).

B10: GpH7-A5/GpH7-B3 variant Q295_15Y/GpL16-k0 (antibody, human IgG1, kappa)
heavy 1: not shown
heavy 2: not shown
light: B1 light
notes: as for B1
With B10, the He/Con_2b in assay [1] is 65.4 % of HeCon Ab (GpH7-A5/GpH7-B3/GpL16-k0 = 100). Further, the He/Con_1a in assay [2] is 102 % of HeCon Ab (GpH7-A5/GpH7-B3/GpL16-k0 = 100).

B11: GpH7-A5/GpH7-B3 variant Q295_16H/GpL16-k0 (antibody, human IgG1, kappa)
heavy 1: not shown
heavy 2: not shown
light: B1 light
notes: as for B1
Consider B11, for which the He/Con_2b in assay [1] is 62.7 % of HeCon Ab (GpH7-A5/GpH7-B3/GpL16-k0 = 100). Further, in assay [2], the He/Con_1a is 102 % of HeCon Ab (GpH7-A5/GpH7-B3/GpL16-k0 = 100).

B12: GpH7-A5/GpH7-B3 variant S298_04F/GpL16-k0 (antibody, human IgG1, kappa)
heavy 1: not shown
heavy 2: not shown
light: B1 light
notes: as for B1
As for B12, in assay [1], the He/Con_2b was 65.4 % of HeCon Ab (GpH7-A5/GpH7-B3/GpL16-k0 = 100). Besides, the He/Con_1a in assay [2] is 109 % of HeCon Ab (GpH7-A5/GpH7-B3/GpL16-k0 = 100).

B13: GpH7-A5/GpH7-B3 variant Q295_14T/GpL16-k0 (antibody, human IgG1, kappa)
heavy 1: not shown
heavy 2: not shown
light: B1 light
notes: as for B1
As to B13, the He/Con_2b in assay [1] was 66.8 % of HeCon Ab (GpH7-A5/GpH7-B3/GpL16-k0 = 100). Further, in assay [2], the He/Con_1a was 103 % of HeCon Ab (GpH7-A5/GpH7-B3/GpL16-k0 = 100).

B14: GpH7-A5/GpH7-B3 variant S298_03V/GpL16-k0 (antibody, human IgG1, kappa)
heavy 1: not shown
heavy 2: not shown
light: B1 light
notes: as for B1
Turning to B14, the He/Con_2b in assay [1] was 64.5 % of HeCon Ab (GpH7-A5/GpH7-B3/GpL16-k0 = 100). Also, in assay [2], the He/Con_1a was 110 % of HeCon Ab (GpH7-A5/GpH7-B3/GpL16-k0 = 100).

B15: GpH7-A5/GpH7-B3 variant Q295_15Y/GpL16-k0 (antibody, human IgG1, kappa)
heavy 1: not shown
heavy 2: not shown
light: B1 light
notes: also called He Ab Q295_15Y
Take B15: in the assay with FcγRIa, the He/Con_1a was 102 % of control.

B16: GpH7-A5/GpH7-B3 variant Q295_09D/GpL16-k0 (antibody, human IgG1, kappa)
heavy 1: not shown
heavy 2: not shown
light: B1 light
notes: as for B1
On to B16, for which the He/Con_2b in assay [1] is 60.8 % of HeCon Ab (GpH7-A5/GpH7-B3/GpL16-k0 = 100). For the same molecule, in assay [2], the He/Con_1a is 100 % of HeCon Ab (GpH7-A5/GpH7-B3/GpL16-k0 = 100).

B17: GpH7-A5/GpH7-B3 variant Q295_12R/GpL16-k0 (antibody, human IgG1, kappa)
heavy 1: not shown
heavy 2: not shown
light: B1 light
notes: as for B1
Consider B17, for which the He/Con_2b in assay [1] is 65.2 % of HeCon Ab (GpH7-A5/GpH7-B3/GpL16-k0 = 100). In addition, the He/Con_1a in assay [2] is 100 % of HeCon Ab (GpH7-A5/GpH7-B3/GpL16-k0 = 100).

B18: GpH7-A5/GpH7-B3 variant Q295_09D/GpL16-k0 (antibody, human IgG1, kappa)
heavy 1: not shown
heavy 2: not shown
light: B1 light
notes: also called He Ab Q295_09D
Consider B18, for which the He/Con_1a with FcγRIa is 100 % of control.

Values taken from patent US20150344570A1 (published 2015).
